This note sets out measurements from PMC9168619 (The Journal of Biological Chemistry, 2022).

For the experiment, the target named is T1, Nup98 (human (endogenous in HeLa), UniProt P52948 1-880).
T1 construct: Nup98, the N-terminal product of the autoproteolytic cleavage of the Nup98-Nup96 precursor
T1 sequence (looked up): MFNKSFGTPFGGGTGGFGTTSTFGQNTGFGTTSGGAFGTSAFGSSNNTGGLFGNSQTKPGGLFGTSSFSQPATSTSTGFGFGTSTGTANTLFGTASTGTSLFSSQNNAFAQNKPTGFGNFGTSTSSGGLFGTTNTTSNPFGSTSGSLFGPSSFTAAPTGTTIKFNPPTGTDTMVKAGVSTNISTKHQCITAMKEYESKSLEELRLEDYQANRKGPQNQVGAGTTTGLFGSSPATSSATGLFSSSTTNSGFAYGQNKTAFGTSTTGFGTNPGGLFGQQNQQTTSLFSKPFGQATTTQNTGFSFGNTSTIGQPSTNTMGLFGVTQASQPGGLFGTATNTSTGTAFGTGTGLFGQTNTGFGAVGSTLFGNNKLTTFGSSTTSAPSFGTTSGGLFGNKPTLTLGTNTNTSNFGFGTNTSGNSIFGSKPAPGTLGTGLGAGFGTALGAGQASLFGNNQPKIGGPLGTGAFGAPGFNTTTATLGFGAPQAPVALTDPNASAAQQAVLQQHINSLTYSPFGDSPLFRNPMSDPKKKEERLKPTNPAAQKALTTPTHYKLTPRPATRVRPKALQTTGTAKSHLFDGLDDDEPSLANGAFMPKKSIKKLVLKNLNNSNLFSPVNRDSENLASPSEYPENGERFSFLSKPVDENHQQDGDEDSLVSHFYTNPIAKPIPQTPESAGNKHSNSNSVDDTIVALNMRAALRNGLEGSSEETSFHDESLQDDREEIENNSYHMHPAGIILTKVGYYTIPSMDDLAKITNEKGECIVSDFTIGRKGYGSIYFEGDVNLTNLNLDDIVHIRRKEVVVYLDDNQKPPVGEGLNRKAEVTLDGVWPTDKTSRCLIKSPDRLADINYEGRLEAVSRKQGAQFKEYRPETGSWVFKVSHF
The experiment in a line: […] 300 mM NaCl, 20 mM Hepes pH 7.4, 0.5% Triton X-100; +4 °C; […]. The following applies: partners not purified.

B1: Rae1 (natural protein, human (endogenous in HeLa), UniProt P78406 1-368, looked up)
chain: MSLFGTTSGFGTSGTSMFGSATTDNHNPMKDIEVTSSPDDSIGCLSFSPPTLPGNFLIAGSWANDVRCWEVQDSGQTIPKAQQMHTGPVLDVCWSDDGSKVFTASCDKTAKMWDLSSNQAIQIAQHDAPVKTIHWIKAPNYSCVMTGSWDKTLKFWDTRSSNPMMVLQLPERCYCADVIYPMAVVATAERGLIVYQLENQPSEFRRIESPLKHQHRCVAIFKDKQNKPTGFALGSIEGRVAIHYINPPNPAKDNFTFKCHRSNGTNTSAPQDIYAVNGIAFHPVHGTLATVGSDGRFSFWDKDARTKLKTSEQLDQPISACCFNHNGNIFAYASSYDWSKGHEFYNPQKKNYIFLRNAAEELKPRNKK
notes: Rae1, shuttling mRNA export factor
For B1, the “stoichiometry N” value is ~1 Nup98:Rae1.
